Reference: IntAct's records for PubMed 11168407

B1: Serine acetyltransferase 3, mitochondrial (Arabidopsis thaliana (Mouse-ear cress)), Q39218 (parent)
chain: MLPVTSRRHFTMSLYMLRSSSPHINHHSFLLPSFVSSKFKHHTLSPPPSPPPPPPMAACIDTCRTGKPQISPRDSSKHHDDESGFRYMNYFRYPDRSSFNGTQTKTLHTRPLLEDLDRDAEVDDVWAKIREEAKSDIAKEPIVSAYYHASIVSQRSLEAALANTLSVKLSNLNLPSNTLFDLFSGVLQGNPDIVESVKLDLLAVKERDPACISYVHCFLHFKGFLACQAHRIAHELWTQDRKILALLIQNRVSEAFAVDFHPGAKIGTGILLDHATAIVIGETAVVGNNVSILHNVTLGGTGKQCGDRHPKIGDGVLIGAGTCILGNITIGEGAKIGAGSVVLKDVPPRTTAVGNPARLLGGKDNPKTHDKIPGLTMDQTSHISEWSDYVI

Variants of: B1
Conditions: with cyskm_arath OASC

| effect of a mutation on the interaction | Variant |
| --- | --- |
| increasing interaction | H309A |
| disrupting interaction | V353A |

Variants of: B1
Conditions: with cyskm_arath OASC
Remark: another data set of the same source

| effect of a mutation on the interaction | Variant |
| --- | --- |
| decreasing interaction | E282A |
| decreasing interaction | V353E |
